Measured values from EP4650366A1.

Experiments:
[1] = target: Human GARP-TGFβ1 complex (human) (UniProt Q14392); experiment: SPR (Biacore T200), method of Example 4
[2] = target: Human GARP-TGFβ1 complex (human) (UniProt Q14392); experiment: SPR (Biacore T200), antibody on Protein A chip, antigen in flow

Sequence of Human GARP-TGFβ1 complex (human) (Q14392 other isoform, or with tags, fused parts or gaps limits assumed, chain 1 of 2): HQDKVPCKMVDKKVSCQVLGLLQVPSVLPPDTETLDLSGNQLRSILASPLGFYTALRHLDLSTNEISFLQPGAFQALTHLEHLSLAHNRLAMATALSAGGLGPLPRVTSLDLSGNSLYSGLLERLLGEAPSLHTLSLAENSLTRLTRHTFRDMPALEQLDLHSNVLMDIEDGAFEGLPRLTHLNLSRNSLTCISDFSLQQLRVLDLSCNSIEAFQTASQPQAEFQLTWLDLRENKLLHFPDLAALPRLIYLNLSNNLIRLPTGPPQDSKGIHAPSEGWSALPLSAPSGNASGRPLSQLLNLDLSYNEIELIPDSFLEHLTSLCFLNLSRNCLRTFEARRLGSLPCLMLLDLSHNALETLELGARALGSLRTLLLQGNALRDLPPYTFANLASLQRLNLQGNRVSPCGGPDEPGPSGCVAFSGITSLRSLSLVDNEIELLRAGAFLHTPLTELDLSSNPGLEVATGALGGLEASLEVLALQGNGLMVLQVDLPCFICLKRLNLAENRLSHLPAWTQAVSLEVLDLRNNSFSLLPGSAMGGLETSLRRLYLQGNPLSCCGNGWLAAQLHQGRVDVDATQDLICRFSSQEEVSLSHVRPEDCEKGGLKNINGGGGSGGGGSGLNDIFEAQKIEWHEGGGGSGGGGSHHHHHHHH
Sequence of Human GARP-TGFβ1 complex (human) (chain, as listed by the source limits assumed, chain 2 of 2): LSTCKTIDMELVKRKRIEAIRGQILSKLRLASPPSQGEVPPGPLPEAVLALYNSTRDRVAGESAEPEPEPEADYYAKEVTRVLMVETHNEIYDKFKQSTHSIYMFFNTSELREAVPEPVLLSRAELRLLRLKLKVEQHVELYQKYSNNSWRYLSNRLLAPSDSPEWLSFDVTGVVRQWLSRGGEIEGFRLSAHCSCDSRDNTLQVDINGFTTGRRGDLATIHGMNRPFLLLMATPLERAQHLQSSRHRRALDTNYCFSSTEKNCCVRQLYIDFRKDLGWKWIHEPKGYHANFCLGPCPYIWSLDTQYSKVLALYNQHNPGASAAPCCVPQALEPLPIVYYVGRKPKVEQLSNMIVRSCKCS

Kd [1]: 0.98 nM
koff [1]: 0.000151 s⁻¹
kon [1]: 154000 M⁻¹ s⁻¹
Kd [2]: 4.39 nM
koff [2]: 0.00283 s⁻¹
kon [2]: 645000 M⁻¹ s⁻¹
Substance: Abbv-151 (antibody)
